Source: publication PMC10066265, “Inhibitor-3 inhibits Protein Phosphatase 1 via a metal binding dynamic protein–protein interaction” (Nature Communications, 2023)
Values joined by “and” are separate entries in the source; they are usually repeats but may differ in a detail not shown here. Identical values can stand only once.

B1: SSC: I3_(27-68) C60S/C61S (domain or fragment, human, UniProt O60927 27-68, looked up)
chain: SLTIKLRKRKPEKKVEWTSDTVDNEHMGRRSSKSSCIYEKPR
notes: PPP1R11), human, residues 27-68, C60S/C61S; also called I3_27-68_SSC; source: E. coli BL21 (DE3), purified (Ni-NTA, TEV cleavage, heat, SEC); not shown: His6, N-terminal, cleaved; MBP, N-terminal, cleaved
B2: CCS: I3_(27-68) C62S (domain or fragment, human, UniProt O60927 27-68, looked up)
chain: SLTIKLRKRKPEKKVEWTSDTVDNEHMGRRSSKCCSIYEKPR
notes: PPP1R11), human, residues 27-68, C62S; source: E. coli BL21 (DE3), purified (Ni-NTA, TEV cleavage, heat, SEC); not shown: His6, N-terminal, cleaved; MBP, N-terminal, cleaved
B3: CCS: I3_(27-68) C62S (domain or fragment, human, UniProt O60927 27-68, looked up)
chain: SLTIKLRKRKPEKKVEWTSDTVDNEHMGRRSSKCCSIYEKPR
notes: PPP1R11), human, residues 27-68; source: E. coli BL21 (DE3), purified (Ni-NTA, TEV, heat 95 °C, SEC); not shown: His6, N-terminal, cleaved; MBP, N-terminal, cleaved
B4: IY: I3_(27-68) I63A/Y64A (domain or fragment, human, UniProt O60927 27-68, looked up)
chain: SLTIKLRKRKPEKKVEWTSDTVDNEHMGRRSSKCCCAAEKPR
notes: PPP1R11), human, residues 27-68, I63A/Y64A; also called I3_(27-68) IY; source: E. coli BL21 (DE3), purified (Ni-NTA, TEV cleavage, heat, SEC); not shown: His6, N-terminal, cleaved; MBP, N-terminal, cleaved
B5: CSC: I3_(27-68) C61S (domain or fragment, human, UniProt O60927 27-68, looked up)
chain: SLTIKLRKRKPEKKVEWTSDTVDNEHMGRRSSKCSCIYEKPR
notes: as for B3
B6: SSS: I3_(27-68) C60S/C61S/C62S (domain or fragment, human, UniProt O60927 27-68, looked up)
chain: SLTIKLRKRKPEKKVEWTSDTVDNEHMGRRSSKSSSIYEKPR
notes: PPP1R11), human, residues 27-68; also called I3_(27-68)SSS; I3_(27-68) SSS; source: E. coli BL21 (DE3), purified (Ni-NTA, TEV, heat 95 °C, SEC); not shown: His6, N-terminal, cleaved; MBP, N-terminal, cleaved
B7: CSS: I3_(27-68) C61S/C62S (domain or fragment, human, UniProt O60927 27-68, looked up)
chain: SLTIKLRKRKPEKKVEWTSDTVDNEHMGRRSSKCSSIYEKPR
notes: PPP1R11), human, residues 27-68, C61S/C62S; also called I3_27-68_CSS; source: E. coli BL21 (DE3), purified (Ni-NTA, TEV cleavage, heat, SEC); not shown: His6, N-terminal, cleaved; MBP, N-terminal, cleaved
B8: CSS: I3_(27-68) C61S/C62S (domain or fragment, human, UniProt O60927 27-68, looked up)
chain: SLTIKLRKRKPEKKVEWTSDTVDNEHMGRRSSKCSSIYEKPR
notes: as for B3
B9: SCS: I3_(27-68) C60S/C62S (domain or fragment, human, UniProt O60927 27-68, looked up)
chain: SLTIKLRKRKPEKKVEWTSDTVDNEHMGRRSSKSCSIYEKPR
notes: as for B3
B10: SCC: I3_(27-68) C60S (domain or fragment, human, UniProt O60927 27-68, looked up)
chain: SLTIKLRKRKPEKKVEWTSDTVDNEHMGRRSSKSCCIYEKPR
notes: as for B3

Tests used:
PP1α_(7-330) = target: T1, PP1α_(7-330) (UniProt P62136 7-330); experiment: SPR; His6-PP1 captured on Ni-NTA chip (NiHC200M), I3 variants injected; 25 °C; 20 mM Tris pH 8.0, 500 mM NaCl, 1 mM MnCl2, 0.5 mM TCEP, 0.05% Tween-20; one-to-one one state or one-to-one two state model (TraceDrawer); conditions: both partners purified
T1 construct: Protein Phosphatase 1 alpha (PP1α), residues 7-330; His6-PP1 was captured on the Ni-NTA sensor chip as the SPR ligand; Mn2+ in all buffers; also called Protein Phosphatase 1; His6-PP1; source: E. coli, purified (Ni-NTA, SEC)
T1 sequence (P62136 7-330): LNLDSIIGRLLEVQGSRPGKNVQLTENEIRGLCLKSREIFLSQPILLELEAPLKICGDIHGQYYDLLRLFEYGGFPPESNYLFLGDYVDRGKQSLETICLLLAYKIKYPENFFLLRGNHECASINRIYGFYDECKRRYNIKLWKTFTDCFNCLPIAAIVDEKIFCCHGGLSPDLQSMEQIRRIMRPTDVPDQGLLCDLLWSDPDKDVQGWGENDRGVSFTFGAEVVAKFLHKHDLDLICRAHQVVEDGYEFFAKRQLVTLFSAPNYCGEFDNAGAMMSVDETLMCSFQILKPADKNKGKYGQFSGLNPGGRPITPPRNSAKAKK

His6-PP1α_(7-330) [1] = target: T2, His6-PP1α_(7-330) (UniProt P62136 7-330); experiment: cell-based or functional assay
T2 sequence (P62136 7-330): as above

His6-PP1α_(7-330) [2] = target: T2, His6-PP1α_(7-330); experiment: SPR; His6-PP1 captured on a Ni-NTA sensorchip (NiHC200M), I3 variants injected; 25 °C; 20 mM Tris pH 8.0, 500 mM NaCl, 1 mM MnCl2, 0.5 mM TCEP, 0.05% Tween-20; one-to-one one state or one-to-one two state model; conditions: both partners purified

Binder	Kd (PP1α_(7-330))	IC50 of PP1 inhibition (dephosphorylation of the H3pT3 peptide, released Pi) (His6-PP1α_(7-330) [1]) [nM]	Kd (His6-PP1α_(7-330) [2]) [nM]
B1	88 nM and 81.1 nM and 88.3 nM and 89.6 nM	–	–
B2	16.1 nM and 17.4 nM and 28.3 nM	–	–
B3	–	171	20.6 ± 5.1
B4	19 nM and 13.1 nM and 14.3 nM and 15.5 nM	–	–
B5	–	158	18.8 ± 0.9
B6	–	380	412 ± 6
B7	20.7 nM and 21.6 nM	–	–
B8	–	153	21.2 ± 0.6
B9	–	179	54 ± 9
B10	–	243	21.7 ± 3.1
